{
  "source": "patent US20240383974A1",
  "about": "(BETTA PHARMACEUTICALS, published 2024)",
  "binders": {"B1": {"name": "antibody m202-hu (antibody, V domains shown)", "VH": "QVQLVQSGAEVKKPGASVKVSCKASGYTFTSYWMHWVKQAPGQGLEWIGNINPSNGDTNYNEKFKSKATLTVDKSTSTAYMELRSLRSDDTAVYYCARATYGSYGYFDVWGQGTLVTVSS", "VL": "DIVLTQSPDSLAVSLGERATINCRASESVTIIGTNLIQWFQQKPGQPPKLLIYHASNLETGVPDRFSGSGSRTDFTLTISSLQAEDVAVYYCLQSRQIPRTFGGGTKVEIK", "notes": "Humanized m202"}, "B2": {"name": "antibody m301-hu (antibody, V domains shown)", "VH": "QVQLQESGPGLVKPSGTLSLTCAVSGFSLTTYGVTWVRQPPGKGLEWIGLIWGDGTTDYHSTFISRLTISKDKSKNQVSLKLSSVTAADTAVYYCASYYFAMHYWGQGTLVTVSS", "VL": "DIVMTQSPDSLAVSLGERATINCKSSQSLLNSRTQKNYLAWYQQKPGQSPKLLIYWASTRESGVPDRFSGSGSGTDFTLTISSLQAEDVAVYYCKQSYNLWTFGGGTKVEIK", "notes": "Humanized m301"}, "B3": {"name": "antibody m109 (antibody, V domains shown)", "VH": "EVKLVESGGGLVQPGGSLKLSCATSGFTFSDYYMYWVRQTPEKRLEWVAYISNGGGRTYYPDTVKGRFTISRDNAKNTLYLQMSRLKSEDRAIYYCARQKTNYGNYEEDYYAMGYWGQGTSVTVSS", "VL": "DIVLTQSPASLAVSLGQRATISCRASKSVSTSGYSYIHWYQQKPGQPPKLLIYLASNLESGVPARFSGSGSGTDFTLNIHPVEEEDAATYYCQHSRELPLTFGAGTKLDLK"}, "B4": {"name": "antibody m202 (antibody, V domains shown)", "VH": "QVQLQQPGTELVKPGASVKLSCKASGYTFTSYWMHWVKQRPGQGLEWIGNINPSNGDTNYNEKFKSKATLTVDKSSSTAYMQLSSLTSDDSAVYYCARATYGSYGYFDVWGTGTAVTVSS", "VL": "DIVLTQSPASLAMSLGKRATISCRASESVTIIGTNLIQWFQQKPGQPPKLLIYHASNLETGVPARFSGSGSRTDFTLTIDPVEEDDVAIYYCLQSRQIPRTFGGGTKLEIK"}, "B5": {"name": "antibody m301 (antibody, V domains shown)", "VH": "QVQLKESGPGLVAPSQSLSITCTVSGFSLTTYGVTWVRQPPGKGLQWLGLIWGDGTTDYHSTFISRLSISKDKSKNQVFFKLNSLQTDDTATYYCASYYFAMHYWGQGTSVTVSS", "VL": "DIVMSQSPSSLAVSAGEKVTMNCKSSQSLLNSRTQKNYLAWYQQKPGQSPKLLIYWASTRESGVPDRFTGSGSGTDFTLTIISVQAEDLAVYYCKQSYNLWTFGGGTKLEIK"}, "B6": {"name": "antibody m107-hu (antibody, V domains shown)", "VH": "QVQLVQSGAEVKRPGASVKVSCKASGYTFSAYTIHWVKQRPGQGLEWIGYINPSNDFAKYIQKFKDKVTITADKSTSTAYMELNSLRSEDTAVYYCARVDYYGGSYRWYLDVWGQGTTVTVSS", "VL": "DIVLTQSPATLSLSPGERATLSCRASQSISNNLHWYQQKPGEAPRLLIKYTSQSISGIPARFSGSGSGTDFTLTISSLEPEDFAVYFCQQSNSWPIFTFGQGTKLEIK", "notes": "Humanized m107"}, "B7": {"name": "antibody m109-hu (antibody, V domains shown)", "VH": "B3 VH with K3Q, K19R, T78S, K87R, S88A, R91T, I93V", "VL": "B3 VL with S22T, N78T, H80N, D109E, L110I", "notes": "Humanized m109"}, "B8": {"name": "b202-H-Bhu-D2hu (bispecific antibody)", "heavy": "not shown", "light": "DIVLTQSPDSLAVSLGERATINCRASESVTIIGTNLIQWFQQKPGQPPKLLIYHASNLETGVPDRFSGSGSRTDFTLTISSLQAEDVAVYYCLQSRQIPRTFGGGTKVEIKRTVAAPSVFIFPPSDEQLKSGTASVVCLLNNFYPREAKVQWKVDNALQSGNSQESVTEQDSKDSTYSLSSTLTLSKADYEKHKVYACEVTHQGLSSPVTKSFNRGEC", "notes": "Tandem architecture and constant regions as noted for b301-H-Bhu-D2hu"}, "B9": {"name": "b202-L-Bhu (bispecific antibody)", "heavy": "not shown", "light": "DIVLTQSPDSLAVSLGERATINCRASESVTIIGTNLIQWFQQKPGQPPKLLIYHASNLETGVPDRFSGSGSRTDFTLTISSLQAEDVAVYYCLQSRQIPRTFGGGTKVEIKRTVAAPSVFIFPPSDEQLKSGTASVVCLLNNFYPREAKVQWKVDNALQSGNSQESVTEQDSKDSTYSLSSTLTLSKADYEKHKVYACEVTHQGLSSPVTKSFNRGECGGGGSGGGGSGGGGSGGGGSQVQLVESGGGVVQPGGSLRLSCAASGFTFSSYAMRWVRQAPGKGLEWVAGINTGSEIVVYANSVRGRFTISRDNSRDTLYLQMNSLRAEDTAVYYCATGLVSAEHDGIWGQGTQVTVSS"}, "B10": {"name": "b305-H-Bhu-D2hu (bispecific antibody)", "heavy": "not shown", "light": "DIQMTQSPSSLSASVGDRVTITCRASQEISGYLSWLQQKPGGAPKRLIYAASTLDSGVPSRFSGSRSGTDYTLTISSLQPEDFATYYCLQYASYPTCTFGGGTKVEIKRTVAAPSVFIFPPSDEQLKSGTASVVCLLNNFYPREAKVQWKVDNALQSGNSQESVTEQDSKDSTYSLSSTLTLSKADYEKHKVYACEVTHQGLSSPVTKSFNRGEC", "notes": "as for B8"}, "B11": {"name": "antibody A (VHH)", "VHH": "QVQLVESGGGLVQAGGSLRLSCAASGRSFSSSGMGWFRQAPGKDREFVATINSSGGDTYYRDSVEGRFTTSRDNAKNTMSLQMNDLKPEDTAVYYCAAKEGGGPSSIPAIYDYWGQGTQVTVSS", "notes": "Anti-PD-L1 alpaca nanobody"}, "B12": {"name": "antibody E (VHH)", "VHH": "B11 VHH with R61A, Y111F", "notes": "Anti-PD-L1 alpaca nanobody"}, "B13": {"name": "antibody B (VHH)", "VHH": "QVQLVESGGGLVQPGGSLSLSCVASGFTFSSYAMRWVRQAPGKEPEWVAGINTGSEIVVYANSVRGRFAISRDNARDTLFLQMNSLKPEDTAVYYCATGLVSAEHDGIWGQGTQVTVSS", "notes": "Anti-PD-L1 alpaca nanobody"}, "B14": {"name": "antibody C (VHH)", "VHH": "EVQLVESGGGSVQTGGSLRLSCVASGRDFLTYGMGWFRQAPGKEREFVASINWSGSMTYYADSVKGRFTISRDNAKNTVYLQMNSLKPGDTAVYICAARRGAVTYASSNEYEHWGQGTQVTVSS", "notes": "Anti-PD-L1 alpaca nanobody"}, "B15": {"name": "antibody D (VHH)", "VHH": "B14 VHH with S11L, T14A, G16D, V23T", "notes": "Anti-PD-L1 alpaca nanobody"}, "B16": {"name": "antibody Ahu (VHH)", "VHH": "B11 VHH with L11V, A14P, D44G, A75S, S80Y, D85S, K87R, P88A, Q119L", "notes": "Humanized anti-PD-L1 nanobody"}, "B17": {"name": "antibody Bhu (VHH)", "VHH": "B13 VHH with L11V, S19R, V23A, E44G, P45L, A69T, A75S, F80Y, K87R, P88A", "notes": "Humanized anti-PD-L1 nanobody"}, "B18": {"name": "antibody D1hu (VHH)", "VHH": "B14 VHH with S11L, T14P, V23T, R45L, K87R, P88A, G89E", "notes": "Humanized anti-PD-L1 nanobody"}, "B19": {"name": "antibody D2hu (VHH)", "VHH": "B14 VHH with S11L, T14P, V23A, E44G, R45L, T78S, K87R, P88A, G89E", "notes": "Humanized anti-PD-L1 nanobody"}, "B20": {"name": "antibody Chu (VHH)", "VHH": "B14 VHH with S11L, T14P, V23A, E44G, P88A, G89E, Q119L", "notes": "Humanized anti-PD-L1 nanobody"}},
  "note": "Where a chain is given by its changes, count along the chain named.",
  "data": [
    {"target": "T1, human PD-L1 (human, UniProt Q9NZQ7 19-290)", "T1 construct": "whole, on cells; also called hPD-L1; PD-L1 antigen on MDA-MB-231 cells", "T1 sequence (Q9NZQ7 19-290)": "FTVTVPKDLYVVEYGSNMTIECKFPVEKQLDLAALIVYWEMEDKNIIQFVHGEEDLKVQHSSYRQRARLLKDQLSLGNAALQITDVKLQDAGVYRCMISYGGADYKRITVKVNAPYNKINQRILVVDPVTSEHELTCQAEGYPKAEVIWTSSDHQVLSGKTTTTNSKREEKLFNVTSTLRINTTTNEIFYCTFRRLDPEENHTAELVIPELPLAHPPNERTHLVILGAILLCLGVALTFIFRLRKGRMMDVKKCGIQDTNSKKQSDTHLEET", "assay": "FACS on MC38-hPD-L1 cells", "values": [
      {"binder": "B1", "binding result": "no binding (tested: initial concentration 200 nM)"},
      {"binder": "B2", "binding result": "no binding (tested: initial concentration 200 nM)"}
    ]},
    {"target": "T2, GARP-TGF-β complex (293-GARP/TGFβ stably transfected cells) (UniProt Q14392 20-662; P01137 30-390)", "T2 construct": "whole, on cells; Complex of GARP and (latent) TGF-β on the cell surface; also called 293-GARP/TGFβ cell; 293F-GAPR/TGFβ/αvβ6 cells", "T2 sequence (Q14392 20-662, chain 1 of 2)": "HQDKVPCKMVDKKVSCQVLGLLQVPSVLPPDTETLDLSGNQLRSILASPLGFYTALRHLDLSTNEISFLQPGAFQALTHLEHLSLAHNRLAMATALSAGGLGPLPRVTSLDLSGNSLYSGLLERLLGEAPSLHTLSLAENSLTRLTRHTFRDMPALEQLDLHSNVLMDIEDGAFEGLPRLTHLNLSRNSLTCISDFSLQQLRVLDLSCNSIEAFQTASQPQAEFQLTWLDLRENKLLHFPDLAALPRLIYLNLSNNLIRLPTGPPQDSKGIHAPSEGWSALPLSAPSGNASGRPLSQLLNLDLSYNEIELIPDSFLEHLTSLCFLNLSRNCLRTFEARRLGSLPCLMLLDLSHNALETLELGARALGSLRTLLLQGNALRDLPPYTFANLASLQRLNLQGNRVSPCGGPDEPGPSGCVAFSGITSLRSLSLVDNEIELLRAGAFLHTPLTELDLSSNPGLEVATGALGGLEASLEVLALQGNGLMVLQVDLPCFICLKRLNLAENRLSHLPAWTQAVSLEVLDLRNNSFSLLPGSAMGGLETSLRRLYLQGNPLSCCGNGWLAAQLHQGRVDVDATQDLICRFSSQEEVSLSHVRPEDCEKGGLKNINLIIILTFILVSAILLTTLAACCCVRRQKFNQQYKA", "T2 sequence (P01137 30-390, chain 2 of 2)": "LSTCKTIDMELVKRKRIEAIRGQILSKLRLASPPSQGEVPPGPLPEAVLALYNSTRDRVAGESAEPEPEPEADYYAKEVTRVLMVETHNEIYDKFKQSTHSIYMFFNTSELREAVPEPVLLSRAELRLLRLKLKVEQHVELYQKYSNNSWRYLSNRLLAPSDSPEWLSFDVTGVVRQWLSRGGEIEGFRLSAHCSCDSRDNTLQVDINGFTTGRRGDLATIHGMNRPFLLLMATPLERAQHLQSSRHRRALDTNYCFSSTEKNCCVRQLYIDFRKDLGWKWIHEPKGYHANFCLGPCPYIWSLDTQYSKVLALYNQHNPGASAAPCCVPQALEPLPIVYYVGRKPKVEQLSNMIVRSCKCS", "assay": "FACS on 293-GARP/TGFβ cells", "units": {"EC50": "nM"}, "values": [
      {"binder": "B3", "EC50": "> 5"},
      {"binder": "B4", "EC50": 2.7},
      {"binder": "B5", "EC50": 2.5}
    ]},
    {"target": "T3, human transforming growth factor β1 (human, UniProt P01137 279-390)", "T3 construct": "Coated on the ELISA plate at 100 ng/well; also called hTGF-β1; TGF-β", "T3 sequence (P01137 279-390 limits assumed)": "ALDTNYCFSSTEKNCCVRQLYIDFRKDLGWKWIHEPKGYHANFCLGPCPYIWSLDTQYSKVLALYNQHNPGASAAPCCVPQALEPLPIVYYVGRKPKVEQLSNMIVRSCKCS", "assay": "ELISA, plate-coated hTGF-β1", "units": {"EC50": "nM"}, "values": [
      {"binder": "B3", "EC50": "< 1"},
      {"binder": "B4", "EC50": "< 1"},
      {"binder": "B5", "EC50": "< 1"}
    ]},
    {"target": "T2, GARP-TGF-β complex (293-GARP/TGFβ …)", "assay": "FACS on 293-GARP/TGFβ cells", "remark": "another data set of the same source", "units": {"EC50": "nM"}, "values": [
      {"binder": "B6", "EC50": 7.5},
      {"binder": "B1", "EC50": 2.5},
      {"binder": "B2", "EC50": 4},
      {"binder": "B7", "EC50": "> 5"}
    ]},
    {"target": "T3, human transforming growth factor β1", "assay": "ELISA, plate-coated hTGF-β1", "remark": "another data set of the same source", "units": {"EC50": "nM"}, "values": [
      {"binder": "B6", "EC50": 7.5},
      {"binder": "B1", "EC50": "< 2"},
      {"binder": "B2", "EC50": "< 2"},
      {"binder": "B7", "EC50": 0.73}
    ]},
    {"target": "T2, GARP-TGF-β complex (293-GARP/TGFβ …)", "assay": "FACS on 293-GARP/TGFβ cells", "remark": "another data set of the same source", "units": {"EC50": "nM"}, "values": [
      {"binder": "B8", "EC50": 1.5},
      {"binder": "B9", "EC50": 1.6},
      {"binder": "B10", "EC50": 4.4}
    ]},
    {"target": "T1, human PD-L1", "assay": "FACS on MDA-MB-231 cells (endogenous PD-L1)", "units": {"EC50": "nM"}, "values": [
      {"binder": "B11", "EC50": 0.089},
      {"binder": "B12", "EC50": 0.053},
      {"binder": "B13", "EC50": 0.031},
      {"binder": "B14", "EC50": 0.042},
      {"binder": "B15", "EC50": 0.039}
    ]},
    {"target": "T1, human PD-L1", "assay": "FACS on PD-L1-expressing cells, similar method", "units": {"EC50": "nM"}, "values": [
      {"binder": "B16", "EC50": 0.051},
      {"binder": "B17", "EC50": 0.18},
      {"binder": "B18", "EC50": 0.18},
      {"binder": "B19", "EC50": 0.29}
    ]},
    {"target": "PD-L1-Biotin (UniProt Q9NZQ7 19-238, limits assumed, biotin label (site not stated))", "sequence (Q9NZQ7 19-238 limits assumed)": "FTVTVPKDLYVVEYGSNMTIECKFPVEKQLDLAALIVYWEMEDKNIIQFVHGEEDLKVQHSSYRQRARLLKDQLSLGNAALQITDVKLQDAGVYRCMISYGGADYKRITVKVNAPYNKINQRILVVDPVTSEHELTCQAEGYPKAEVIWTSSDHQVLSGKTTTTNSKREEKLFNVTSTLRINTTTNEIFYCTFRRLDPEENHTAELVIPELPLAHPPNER", "assay": "competitive FACS: blocks PD-L1-Biotin binding to 293T-PD-1 cells", "units": {"IC50": "nM"}, "values": [
      {"binder": "B11", "IC50": 1.02},
      {"binder": "B16", "IC50": 4},
      {"binder": "B12", "IC50": 2.54},
      {"binder": "B13", "IC50": 2.08},
      {"binder": "B17", "IC50": 3.4},
      {"binder": "B18", "IC50": 2.6},
      {"binder": "B14", "IC50": 1.68},
      {"binder": "B20", "IC50": 1},
      {"binder": "B15", "IC50": 2.1},
      {"binder": "B19", "IC50": 12}
    ]},
    {"target": "T1, human PD-L1", "assay": "competitive FACS: blocks human-CD80-mFc binding to 293T-PD-L1 cells", "units": {"IC50": "nM"}, "values": [
      {"binder": "B11", "IC50": 3.95},
      {"binder": "B16", "IC50": "~1.8"},
      {"binder": "B12", "IC50": 2.98},
      {"binder": "B13", "IC50": 3.35},
      {"binder": "B17", "IC50": "~1.7"},
      {"binder": "B18", "IC50": "~1.5"},
      {"binder": "B14", "IC50": 4.15},
      {"binder": "B20", "IC50": "~3.2"},
      {"binder": "B15", "IC50": 4.76}
    ]}
  ]
}
